# Where “and” joins values, the source holds several entries; their conditions need not be identical. Equal entries are not always repeated.
# B1: Shaker-Δ6-46 K+ channel (other)
# chain: MAAVALREQQLQRNSLDGYGSLPKLSSQDEEGGAGHGFGGGPQHFEPIPHDHDFCERVVINVSGLRFETQLRTLNQFPDTLLGDPARRLRYFDPLRNEYFFDRSRPSFDAILYYYQSGGRLRRPVNVPLDVFSEEIKFYELGDQAINKFREDEGFIKEEERPLPDNEKQRKVWLLFEYPESSQAARVVAIISVFVILLSIVIFCLETLPEFKHYKVFNTTTNGTKIEEDEVPDITDPFFLIETLCIIWFTFELTVRFLACPNKLNFCRDVMNVIDIIAIIPYFITLATVVAEEEDTLNLPKAPVSPQDKSSNQAMSLAILRVIRLVRVFRIFKLSRHSKGLQILGRTLKASMRELGLLIFFLFIGVVLFSSAVYFAEAGSENSFFKSIPDAFWWAVVTMTTVGYGDMTPVGVWGKIVGSLCAIAGVLTIALPVPVIVSNFNYFYHRETDQEEMQSQNFNHVTSCPYLPGTLGQHMKKSSLSESSSDMMDLDDGVESTPGLTETHPGRSAVAPFLGAQQQQQQPVASSLSMSIDKQLQHPLQQLTQTQLYQQQQQQQQQQQNGFKQQQQQTQQQLQQQQSHTINASAAAATSGSGSSGLTMRHNNALAVSIETDV
# B2: Shaker K+ channel, wild type (other)
# chain: MAAVAGLYGLGEDRQHRKKQQQQQQHQKEQLEQKEEQKKIAERKLQLREQQLQRNSLDGYGSLPKLSSQDEEGGAGHGFGGGPQHFEPIPHDHDFCERVVINVSGLRFETQLRTLNQFPDTLLGDPARRLRYFDPLRNEYFFDRSRPSFDAILYYYQSGGRLRRPVNVPLDVFSEEIKFYELGDQAINKFREDEGFIKEEERPLPDNEKQRKVWLLFEYPESSQAARVVAIISVFVILLSIVIFCLETLPEFKHYKVFNTTTNGTKIEEDEVPDITDPFFLIETLCIIWFTFELTVRFLACPNKLNFCRDVMNVIDIIAIIPYFITLATVVAEEEDTLNLPKAPVSPQDKSSNQAMSLAILRVIRLVRVFRIFKLSRHSKGLQILGRTLKASMRELGLLIFFLFIGVVLFSSAVYFAEAGSENSFFKSIPDAFWWAVVTMTTVGYGDMTPVGVWGKIVGSLCAIAGVLTIALPVPVIVSNFNYFYHRETDQEEMQSQNFNHVTSCPYLPGTLGQHMKKSSLSESSSDMMDLDDGVESTPGLTETHPGRSAVAPFLGAQQQQQQPVASSLSMSIDKQLQHPLQQLTQTQLYQQQQQQQQQQQNGFKQQQQQTQQQLQQQQSHTINASAAAATSGSGSSGLTMRHNNALAVSIETDV
# notes: whole, on cells
# Experiments:
# κM-conotoxin RIIIK [1] = target: κM-conotoxin RIIIK (Conus radiatus)
# κM-conotoxin RIIIK [2] = target: κM-conotoxin RIIIK (Conus radiatus); assay: voltage clamp of channels expressed in Xenopus oocytes
Binder,Kd (κM-conotoxin RIIIK [1]),binding result (κM-conotoxin RIIIK [2])
B1,3330 nM and 1260 nM,
B2,,binds

# — patent US20080274976A1 (UNIVERSITY OF UTAH RESEARCH FOUNDATION, published 2008)
